This note sets out measurements from PMC5759053.

This assay concerns the target Positive controls (Ci-M1; TRPV4-Ci, each with Ce-M1). Briefly: FRET or BRET.

cerulean-AQP4 M1, sequence (P55088 whole entry): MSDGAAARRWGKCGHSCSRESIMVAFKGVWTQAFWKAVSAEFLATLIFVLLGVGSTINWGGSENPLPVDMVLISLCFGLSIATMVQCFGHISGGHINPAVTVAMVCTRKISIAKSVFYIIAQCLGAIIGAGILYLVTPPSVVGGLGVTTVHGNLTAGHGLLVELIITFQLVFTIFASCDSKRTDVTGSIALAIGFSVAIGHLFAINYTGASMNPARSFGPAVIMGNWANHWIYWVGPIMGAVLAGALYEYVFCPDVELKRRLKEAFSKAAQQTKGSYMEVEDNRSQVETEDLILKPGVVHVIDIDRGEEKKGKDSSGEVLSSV

In the case of “cerulean-AQP4 M1 (from UniProt P55088-1 1-323) (natural protein)”, the FRET efficiency is 8 to 10%.
